Test results: publication PMC6776472 (Biochemistry, 2018)
Each block holds one binder with its values, some of them ahead of it. No end group written: not given here.

Assays:
ERK2 = ERK2 (UniProt P28482 1-360); experiment: fluorescence polarisation
[1] = molecular target: p38α (unphosphorylated, recombinant) (UniProt Q16539 1-360); experiment: fluorescence polarisation
JNK1 = JNK1 (UniProt P45983 1-427); experiment: ITC
Sequence of JNK1 (P45983 whole entry): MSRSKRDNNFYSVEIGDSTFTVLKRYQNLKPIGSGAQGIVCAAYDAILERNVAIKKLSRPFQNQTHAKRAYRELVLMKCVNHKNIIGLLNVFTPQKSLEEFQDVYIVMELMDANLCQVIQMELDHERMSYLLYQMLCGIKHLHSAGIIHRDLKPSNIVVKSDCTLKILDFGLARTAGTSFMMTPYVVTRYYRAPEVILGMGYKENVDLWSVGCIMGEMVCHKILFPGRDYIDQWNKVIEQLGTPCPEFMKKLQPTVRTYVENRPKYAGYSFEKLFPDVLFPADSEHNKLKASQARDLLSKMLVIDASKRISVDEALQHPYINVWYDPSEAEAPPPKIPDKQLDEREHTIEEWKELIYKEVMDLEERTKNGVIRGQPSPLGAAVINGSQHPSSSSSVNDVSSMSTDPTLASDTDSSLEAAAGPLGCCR

Sequence of ERK2 (P28482 whole entry): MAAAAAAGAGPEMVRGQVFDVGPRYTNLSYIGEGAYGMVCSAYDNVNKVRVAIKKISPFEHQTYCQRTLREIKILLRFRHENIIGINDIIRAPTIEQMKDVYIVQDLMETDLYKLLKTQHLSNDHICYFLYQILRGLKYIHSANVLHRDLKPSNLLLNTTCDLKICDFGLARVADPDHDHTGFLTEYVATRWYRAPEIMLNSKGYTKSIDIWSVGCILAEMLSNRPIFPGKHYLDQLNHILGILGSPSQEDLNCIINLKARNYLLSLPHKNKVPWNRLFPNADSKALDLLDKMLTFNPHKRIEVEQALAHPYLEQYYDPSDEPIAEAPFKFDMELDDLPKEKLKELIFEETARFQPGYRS
Sequence of p38α (unphosphorylated, recombinant) (Q16539 whole entry): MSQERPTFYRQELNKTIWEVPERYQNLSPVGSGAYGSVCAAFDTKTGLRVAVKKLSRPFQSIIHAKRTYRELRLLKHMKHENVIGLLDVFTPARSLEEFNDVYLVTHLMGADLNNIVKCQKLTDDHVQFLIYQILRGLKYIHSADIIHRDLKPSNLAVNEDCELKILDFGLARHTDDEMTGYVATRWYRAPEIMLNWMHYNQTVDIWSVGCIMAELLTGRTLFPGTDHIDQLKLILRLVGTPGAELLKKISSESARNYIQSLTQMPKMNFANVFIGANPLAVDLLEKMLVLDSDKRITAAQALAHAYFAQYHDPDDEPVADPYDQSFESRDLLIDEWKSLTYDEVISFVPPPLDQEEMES

- binding result (ERK2): binds
- Kd [1]: 3.9 µM
Binder: {TAMRA}-GKKRNPGLKIPK [MKK6-derived 12-residue peptide, TAMRA-labeled]

- Kd (JNK1): > 100 µM
B1: pepMKK6mb (designed binder)
chain: RDLEVVAATPTSLLISWDAPAVTVRYYRITYGETGGNSPVQEFTVPGSKSTATISGLKPGVDYTITVYAVTGRPGLKIPSKPISINYRTEI
